The results in this text go back to the supplement of paper PMC10567573.

Sequences and labels used below:
B1: ETS2 (parent)
chain: TSGKRYVYRFVCDLQNLLGFTPEE
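Further: lentivirally expressed fusions sorted by FACS into six bins by GFP to DsRed ratio, PSI derived from sequencing read proportions per bin multiplied by bin number.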

Variants of B1 are the subject of the data set. Put plainly: protein stability index of a GFP-peptide fusion (GPS, HEK-293T) (PSI 1-6); higher = more stable. Conditions: c terminus: a fixed tail appended.
Turning to TSGKRVVYRFVCDLQNLLGFTPEE [Y6V], the protein stability index stood at 2.61. For TSGKRLVYRFVCDLQNLLGFTPEE [Y6L] the value was 3.25. For TSGKRAVYRFVCDLQNLLGFTPEE [Y6A] the value was 1.43; for TSGKRHVYRFVCDLQNLLGFTPEE [Y6H], 2.41.

For the variant TSGKRNVYRFVCDLQNLLGFTPEE [Y6N], the protein stability index is 1.52. TSGKREVYRFVCDLQNLLGFTPEE [Y6E]: the protein stability index was found to be 1.4. For the variant TSGKRSVYRFVCDLQNLLGFTPEE [Y6S], the protein stability index was found to be 2.26. For TSGKRCVYRFVCDLQNLLGFTPEE [Y6C] the value was 2.26. As for TSGWRYVYRFVCDLQNLLGFTPEE [K4W], the figure is 2.72.

Take TSGTRYVYRFVCDLQNLLGFTPEE [K4T]: the protein stability index stood at 2.17.

On to TSGNRYVYRFVCDLQNLLGFTPEE [K4N], for which the protein stability index was 2.34. In the case of TSGYRYVYRFVCDLQNLLGFTPEE [K4Y], the protein stability index came out at 3.33. As for TSGRRYVYRFVCDLQNLLGFTPEE [K4R], the figure is 3.33. Turning to TSGVRYVYRFVCDLQNLLGFTPEE [K4V], the protein stability index came out at 2. As for TSGQRYVYRFVCDLQNLLGFTPEE [K4Q], the protein stability index was found to be 1.7. For TSGPRYVYRFVCDLQNLLGFTPEE [K4P] the value was 1.83. TSGKRYVYRFVCDRQNLLGFTPEE [L14R]: the protein stability index was 2.35. For TSGKRYVYRFVCDPQNLLGFTPEE [L14P] the value was 3.53; for TSGKRYVYRFVCDAQNLLGFTPEE [L14A], 3.91. For TSGKRYVYRFVCDKQNLLGFTPEE [L14K] the value was 3.2; for TSGKRYVYRFVCDHQNLLGFTPEE [L14H], 2.34; for TSGKRYVYRFVCDFQNLLGFTPEE [L14F], 2.08.

Take TSGKRYVYRFVCDCQNLLGFTPEE [L14C]: the protein stability index came to 2.07. As for TSGKRYVYRFVCDYQNLLGFTPEE [L14Y], the figure is 2.56; as for TSGKRYVYRFVCDTQNLLGFTPEE [L14T], 2.69. For TSGKRYVYRFVCDDQNLLGFTPEE [L14D] the value was 3.01. As for TSGKRYVYRFVCDNQNLLGFTPEE [L14N], the figure is 2.23. Regarding TSGKRYVYRFVCDMQNLLGFTPEE [L14M], the protein stability index came out at 2.14.

In the case of TSGKRYVYRFVCDEQNLLGFTPEE [L14E], the protein stability index is 3.19. TSGKRYVYRFVCDGQNLLGFTPEE [L14G]: the protein stability index amounted to 2.34. As for TSGKRYVYRFVCDIQNLLGFTPEE [L14I], the figure is 2.41; as for TSGKRYVYRFVCDVQNLLGFTPEE [L14V], 2.39. As for TSGKRYVYRFVCDQQNLLGFTPEE [L14Q], the protein stability index stood at 2.81.

Turning to TSGKRYVYRFVCDSQNLLGFTPEE [L14S], the protein stability index is 2.77. For TSGKRYVYRFVCDWQNLLGFTPEE [L14W] the value was 2.53; for TSGKRYVYRFVCDLCNLLGFTPEE [Q15C], 2.23; for TSGKRYVYRFVCDLHNLLGFTPEE [Q15H], 1.96. For TSGKRYVYRFVCDLDNLLGFTPEE [Q15D] the value was 1.61. For TSGKRYVYRFVCDLENLLGFTPEE [Q15E] the value was 1.85; for TSGKRYVYRFVCDLFNLLGFTPEE [Q15F], 2.09; for TSGKRYVYRFVCDLANLLGFTPEE [Q15A], 2.23.

TSGKRYVYRFVCDLGNLLGFTPEE [Q15G]: the protein stability index was 3.45. As for TSGKRYVYRFVWDLQNLLGFTPEE [C12W], the figure is 2.21. For TSGKRYVYRFVTDLQNLLGFTPEE [C12T] the value was 2.17; for TSGKRYVYRFVDDLQNLLGFTPEE [C12D], 1.72; for TSGKRYVYRFVLDLQNLLGFTPEE [C12L], 2.03. In the case of TSGKRYVYRFVFDLQNLLGFTPEE [C12F], the protein stability index was found to be 1.68. As to TSGKRYVYRFVSDLQNLLGFTPEE [C12S], the protein stability index amounted to 2.9. On to TSGKRYVYRFVADLQNLLGFTPEE [C12A], for which the protein stability index was determined as 1.92.

Regarding TSGKRYVYRFVKDLQNLLGFTPEE [C12K], the protein stability index was found to be 2.98. In the case of TSGKRYVYRFVMDLQNLLGFTPEE [C12M], the protein stability index came to 1.25. On to TSGKRYVYRFVHDLQNLLGFTPEE [C12H], for which the protein stability index stood at 2.31.

In the case of TSGKRYVYRFVPDLQNLLGFTPEE [C12P], the protein stability index came to 2.05.

Regarding TSGKRYVYRFVEDLQNLLGFTPEE [C12E], the protein stability index was determined as 1.76. Take TSGKRYVYRFVVDLQNLLGFTPEE [C12V]: the protein stability index came out at 2.39. For TSGKRYVYRFVGDLQNLLGFTPEE [C12G] the value was 2.04; for TSGKRYVYRFVQDLQNLLGFTPEE [C12Q], 2.57. As for TSGKRYVYRFVIDLQNLLGFTPEE [C12I], the figure is 1.96; as for TSGKRYVYRFVYDLQNLLGFTPEE [C12Y], 1.77. Regarding TSGKRYVYRFVRDLQNLLGFTPEE [C12R], the protein stability index is 2.58. For the variant TSGKRYVYRFVNDLQNLLGFTPEE [C12N], the protein stability index is 3.4.

With TSGKRYKYRFVCDLQNLLGFTPEE [V7K], the protein stability index turned out to be 2.3. As for TSGKRYSYRFVCDLQNLLGFTPEE [V7S], the figure is 2.83; as for TSGKRYDYRFVCDLQNLLGFTPEE [V7D], 1.46; as for TSGKRYLYRFVCDLQNLLGFTPEE [V7L], 2.22.

TSGKRYHYRFVCDLQNLLGFTPEE [V7H]: the protein stability index was determined as 2.04.

Turning to TSGKRYEYRFVCDLQNLLGFTPEE [V7E], the protein stability index was 1.3. As to TSGKRYQYRFVCDLQNLLGFTPEE [V7Q], the protein stability index was 1.98. As for TSGKRYTYRFVCDLQNLLGFTPEE [V7T], the figure is 2.57; as for TSGKRYPYRFVCDLQNLLGFTPEE [V7P], 1.84; as for TSGKRYNYRFVCDLQNLLGFTPEE [V7N], 1.25.

As to TSGKRYMYRFVCDLQNLLGFTPEE [V7M], the protein stability index was found to be 3.69. As for TSGKRYWYRFVCDLQNLLGFTPEE [V7W], the figure is 2.61; as for TSGKRYRYRFVCDLQNLLGFTPEE [V7R], 1.03. Turning to TSGKRYFYRFVCDLQNLLGFTPEE [V7F], the protein stability index came out at 2.25. As for TSGKRYAYRFVCDLQNLLGFTPEE [V7A], the figure is 1.29; as for TSGKRYVYRFVCGLQNLLGFTPEE [D13G], 2.41. As for TSGKRYVYRFVCFLQNLLGFTPEE [D13F], the figure is 2.96; as for TSGKRYVYRFVCWLQNLLGFTPEE [D13W], 2.98; as for TSGKRYVYRFVCNLQNLLGFTPEE [D13N], 1.77. As to TSGKRYVYRFVCQLQNLLGFTPEE [D13Q], the protein stability index amounted to 2.46.

Consider TSGKRYVYRFVCKLQNLLGFTPEE [D13K], for which the protein stability index turned out to be 2.48. As for TSGKRYVYRFVCVLQNLLGFTPEE [D13V], the protein stability index was determined as 2.33. TSGKRYVYRFVCILQNLLGFTPEE [D13I]: the protein stability index was found to be 2.81. For TSGKRYVYRFVCPLQNLLGFTPEE [D13P] the value was 3.25. As for TSGKRYVYRFVCALQNLLGFTPEE [D13A], the figure is 2.67; as for TSGKRYVYRFVCSLQNLLGFTPEE [D13S], 1.57. For TSGKRYVYRFVCHLQNLLGFTPEE [D13H] the value was 1.79. As for TSGKRYVYRFVCYLQNLLGFTPEE [D13Y], the protein stability index turned out to be 2.37. For TSGKRYVYRFVCCLQNLLGFTPEE [D13C] the value was 2.22; for TSGKRYVYRFVCLLQNLLGFTPEE [D13L], 2.22; for TSGKRYVYRFVCRLQNLLGFTPEE [D13R], 2.11. As for TSGKRYVYRFVCTLQNLLGFTPEE [D13T], the figure is 2.99; as for TSGKRYVYRFVCELQNLLGFTPEE [D13E], 2.11.
